{
  "source": "patent US12194076B2",
  "about": "“Methods and compositions for treating myelofibrosis” (Acceleron Pharma Inc., priority 2016, dated 2025)",
  "molecules": {"B1": {"name": "K74A: soluble ActRIIB-Fc variant K74A, data from WO2006/012627 (protein)", "chain": "SGRGEAETRECIYYNANWELERTNQSGLERCEGEQDKRLHCYASWANSSGTIELVAKGCWLDDFNCYDRQECVATEENPQVYFCCCEGNFCNERFTHLPEA", "modifications": "left off: a dimerising Fc or GST"}, "B2": {"name": "ActRIIB(20-134)-hFc: extracellular domain of human ActRIIB (20-134, R64) fused to human Fc with three-glycine linker, SEQ ID NO: 24 (protein)", "chain": "GRGEAETRECIYYNANWELERTNQSGLERCEGEQDKRLHCYASWRNSSGTIELVKKGCWLDDFNCYDRQECVATEENPQVYFCCCEGNFCNERFTHLPEAGGPEVTYEPPPTAPTGGGTHTCPPCPAPELLGGPSVFLFPPKPKDTLMISRTPEVTCVVVDVSHEDPEVKFNWYVDGVEVHNAKTKPREEQYNSTYRVVSVLTVLHQDWLNGKEYKCKVSNKALPVPIEKTISKAKGQPREPQVYTLPPSREEMTKNQVSLTCLVKGFYPSDIAVEWESNGQPENNYKTTPPVLDSDGSFFLYSKLTVDKSRWQQGNVFSCSVMHEALHNHYTQKSLSLSPGK"}, "B3": {"name": "ActRIIB(20-134)-Fc: ActRIIB-Fc fusion protein containing amino acids 20-134 of SEQ ID NO: 1 (protein)", "chain": "GRGEAETRECIYYNANWELERTNQSGLERCEGEQDKRLHCYASWRNSSGTIELVKKGCWLDDFNCYDRQECVATEENPQVYFCCCEGNFCNERFTHLPEAGGPEVTYEPPPTAPT", "modifications": "Fc fusion partner without entry"}, "B4": {"name": "A64 20-134: ActRIIB-Fc fusion protein, residues 20-134, alanine at position 64 (protein)", "chain": "GRGEAETRECIYYNANWELERTNQSGLERCEGEQDKRLHCYASWANSSGTIELVKKGCWLDDFNCYDRQECVATEENPQVYFCCCEGNFCNERFTHLPEAGGPEVTYEPPPTAPT", "modifications": "Fc fusion partner without entry"}, "B5": {"name": "ActRIIB(20-119)-Fc: ActRIIB-Fc fusion protein containing amino acids 20-119 of SEQ ID NO: 1 (protein)", "chain": "GRGEAETRECIYYNANWELERTNQSGLERCEGEQDKRLHCYASWRNSSGTIELVKKGCWLDDFNCYDRQECVATEENPQVYFCCCEGNFCNERFTHLPEA", "modifications": "Fc fusion, Fc no entry"}},
  "key": {"BMP6": {"target": "T1, BMP6 (Homo sapiens, UniProt P22004)", "T1 sequence (P22004 375-513)": "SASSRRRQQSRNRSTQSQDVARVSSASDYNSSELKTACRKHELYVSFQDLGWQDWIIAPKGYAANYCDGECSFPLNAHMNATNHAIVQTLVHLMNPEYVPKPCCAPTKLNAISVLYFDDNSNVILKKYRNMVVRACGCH", "test": "Biacore ligand binding of GDF trap, BMP6", "experimental": "(§1) The affinity of GDF traps and other ActRIIB-hFc proteins for several ligands was evaluated in vitro with a Biacore™ instrument. Kd values were obtained by steady-state affinity fit due to the very rapid association and dissociation of the complex, which prevented accurate determination of kon and koff."}, "Activin A [1]": {"target": "T2, Activin A (Homo sapiens, UniProt P08476)", "T2 sequence (P08476 311-426)": "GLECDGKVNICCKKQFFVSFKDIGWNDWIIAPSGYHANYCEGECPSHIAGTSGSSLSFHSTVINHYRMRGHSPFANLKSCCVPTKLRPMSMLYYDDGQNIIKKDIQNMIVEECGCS", "test": "Biacore steady-state affinity of ActRIIB-hFc proteins for activin A", "type": "binding", "settings": "compared to counterparts lacking the L79D substitution", "experimental": "(§2) Affinities of several ligands for ActRIIB(25-131)-hFc and its full-length counterpart ActRIIB(20-134)-hFc were evaluated in vitro with a Biacore™ instrument, and the results are summarized in the table below. Kd values were obtained by steady-state affinity fit due to very rapid association and dissociation of the complex, which prevented accurate determination of kon and koff. ActRIIB(25-131)-hFc bound activin A, activin B, and GDF11 with high affinity.\nas §1"}, "BMP10": {"target": "T3, BMP10 (Homo sapiens, UniProt O95393)", "T3 sequence (O95393 317-424)": "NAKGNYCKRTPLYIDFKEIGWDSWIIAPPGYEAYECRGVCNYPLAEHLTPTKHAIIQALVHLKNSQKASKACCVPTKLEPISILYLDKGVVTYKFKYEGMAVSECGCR", "test": "Biacore ligand binding of GDF trap, BMP10", "experimental": "as §1"}, "Activin B": {"target": "T4, Activin B (Homo sapiens, UniProt P09529)", "T4 sequence (P09529 293-407)": "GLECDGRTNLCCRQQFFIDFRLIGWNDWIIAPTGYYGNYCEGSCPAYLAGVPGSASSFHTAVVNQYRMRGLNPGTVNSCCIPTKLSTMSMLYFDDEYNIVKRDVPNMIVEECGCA", "test": "Biacore steady-state affinity of ActRIIB-hFc proteins for activin B", "type": "binding", "settings": "compared to counterparts lacking the L79D substitution", "experimental": "as §2, §1"}, "GDF8 [2]": {"target": "T5, GDF8 (Homo sapiens, UniProt O14793)", "T5 sequence (O14793 267-375)": "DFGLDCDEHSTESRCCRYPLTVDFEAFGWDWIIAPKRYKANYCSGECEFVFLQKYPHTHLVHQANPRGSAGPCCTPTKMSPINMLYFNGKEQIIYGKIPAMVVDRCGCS", "test": "Biacore ligand binding of GDF trap, GDF8", "experimental": "as §1"}, "GDF11 [3]": {"target": "T6, GDF11 (Homo sapiens, UniProt O95390)", "T6 sequence (O95390 299-407)": "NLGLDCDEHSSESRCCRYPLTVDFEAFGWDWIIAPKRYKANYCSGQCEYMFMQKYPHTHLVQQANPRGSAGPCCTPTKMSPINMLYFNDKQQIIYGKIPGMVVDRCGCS", "test": "Biacore steady-state affinity of ActRIIB-hFc proteins for GDF11", "type": "binding", "settings": "compared to counterparts lacking the L79D substitution", "experimental": "as §2, §1"}, "[4]": {"tested_on": "anemic myelofibrosis patients", "settings": "cited from earlier work"}, "GDF11 [5]": {"target": "T6, GDF11", "settings": "ligand coupled to the device; reproduced from WO2006/012627; cited from earlier work"}, "GDF8 [6]": {"target": "T5, GDF8", "test": "A-204 reporter gene assay, inhibition of GDF-8 activity", "type": "cell-based", "design": "host or cells: added to A-204 cells (human rhabdomyosarcoma)"}, "GDF11 [7]": {"target": "T6, GDF11", "test": "A-204 reporter gene assay, inhibition of GDF-11 signaling", "type": "cell-based", "design": "host or cells: added to A-204 cells (human rhabdomyosarcoma)", "source_text": "(§3) An A-204 reporter gene assay was used to evaluate the effects of ActRIIB-Fc proteins and GDF traps on signaling by GDF-11 and activin A. Cell line: human rhabdomyosarcoma (derived from muscle). Reporter vector: pGL3(CAGA)12 (described in Dennler et al, 1998, EMBO 17: 3091-3100). The CAGA12 motif is present in TGF-beta responsive genes (e.g., PAI-1 gene), so this vector is of general use for factors signaling through SMAD2 and 3.\n(§4) Day 1: Split A-204 cells into 48-well plate.\n(§5) Day 2: A-204 cells transfected with 10 ug pGL3(CAGA)12 or pGL3(CAGA)12(10 ug)+pRLCMV (1 μg) and Fugene.\n(§6) Day 3: Add factors (diluted into medium+0.1% BSA). Inhibitors need to be preincubated with factors for 1 hr before adding to cells. Six hrs later, cells were rinsed with PBS and lysed.\n(§7) This is followed by a luciferase assay.\n(§8) Activity of ActRIIB-Fc proteins and GDF traps was tested in a cell-based assay as described above. Some variants were tested in different C-terminal truncation constructs. As discussed above, truncations of five or fifteen amino acids caused reduction in activity."}, "Activin A [8]": {"target": "T2, Activin A", "test": "Biacore assay, receptor captured with anti-hFc antibody, activin A injected", "type": "binding", "settings": "receptor captured via anti-hFc antibody", "experimental": "(§9) Binding of certain ActRIIB-Fc proteins and GDF traps to ligands was tested in a Biacore™ assay.\n(§10) The ActRIIB-Fc variants or wild-type protein were captured onto the system using an anti-hFc antibody. Ligands were injected and flowed over the captured receptor proteins."}, "activin [9]": {"tested_on": "activin", "test": "Affinity/binding of ActRIIB-Fc fusion proteins for activin", "settings": "ActRIIB-Fc fusion protein, position 64 variant"}, "Activin A [10]": {"target": "T2, Activin A", "test": "A-204 reporter gene assay, inhibition of activin A signaling", "type": "cell-based", "design": "host or cells: added to A-204 cells (human rhabdomyosarcoma)", "source_text": "as §3, §4, §5, §6, §7, §8"}, "GDF11 [11]": {"target": "T6, GDF11", "test": "Affinity/binding of ActRIIB-Fc fusion proteins for GDF11", "settings": "ActRIIB-Fc fusion protein, position 64 variant"}, "GDF11 [12]": {"target": "T6, GDF11", "test": "Biacore assay, receptor captured with anti-hFc antibody, GDF11 injected", "type": "binding", "settings": "receptor captured via anti-hFc antibody", "experimental": "as §9, §10"}, "GDF8 [13]": {"target": "T5, GDF8", "test": "Biacore assay, receptor captured with anti-hFc antibody, GDF8 injected", "type": "binding", "settings": "receptor captured via anti-hFc antibody", "experimental": "as §9, §10"}, "Serum half-life in rats": {"test": "Serum half-life in rats", "type": "in vivo", "experimental": "Several variants have been assessed for serum half-life in rats. ActRIIB(20-134)-Fc has a serum half-life of approximately 70 hours. […] Any of the variants tested above, may be combined with the GDF trap molecules."}, "activin [14]": {"tested_on": "activin", "settings": "see U.S. Pat. No. 7,842,663; cited from earlier work"}, "GDF11 [15]": {"target": "T6, GDF11", "settings": "see U.S. Pat. No. 7,842,663; cited from earlier work"}},
  "data": [
    {"molecule": "ActRIIB(L79D 25-131)-hFc: GDF trap with truncated ActRIIB extracellular domain (residues 25-131, L79D) fused to human Fc, SEQ ID NO: 50, 53", "values": [
      {"measurement": "binding to BMP6, in words", "setting": "BMP6", "value": "strong to intermediate"},
      {"measurement": "activin A binding, in words", "setting": "Activin A [1]", "value": "pronounced loss"},
      {"measurement": "binding to BMP10, in words", "setting": "BMP10", "value": "strong to intermediate"},
      {"measurement": "activin B binding, in words", "setting": "Activin B", "value": "partial loss"},
      {"measurement": "binding to GDF8, in words", "setting": "GDF8 [2]", "value": "strong to intermediate"},
      {"measurement": "GDF11 binding, in words", "setting": "GDF11 [3]", "value": "nearly full retention"}
    ]},
    {"molecule": "C#C[C@]1(O)CC[C@H]2[C@@H]3CCC4=Cc5oncc5C[C@]4(C)[C@H]3CC[C@@]21C", "note": "[danazol]", "values": [
      {"measurement": "anemia response rate", "setting": "[4]", "value": "around 20%"}
    ]},
    {"molecule": "B1", "values": [
      {"measurement": "GDF11 binding relative to WT", "setting": "GDF11 [5]", "value": "+++++ (~40x increased binding)"}
    ]},
    {"molecule": "B2", "values": [
      {"measurement": "inhibition of GDF-8 activity, in words", "setting": "GDF8 [6]", "value": "potent inhibitor"},
      {"measurement": "inhibition of GDF-11 activity, in words", "setting": "GDF11 [7]", "value": "potent inhibitor"},
      {"measurement": "Koff (1/s), Activin A", "setting": "Activin A [8]", "value": 0.000159, "unit": "s⁻¹"},
      {"measurement": "Kon (1/Ms), Activin A", "setting": "Activin A [8]", "value": "5.94e+06", "unit": "M⁻¹ s⁻¹"},
      {"measurement": "affinity for activin, in words", "setting": "activin [9]", "value": "low nanomolar to high picomolar range"},
      {"measurement": "inhibition of activin A activity, in words", "setting": "Activin A [10]", "value": "potent inhibitor"},
      {"measurement": "affinity for GDF11, in words", "setting": "GDF11 [11]", "value": "low nanomolar to high picomolar range"},
      {"measurement": "Koff (1/s), GDF11", "setting": "GDF11 [12]", "value": 0.000113, "unit": "s⁻¹"},
      {"measurement": "Koff (1/s), GDF8", "setting": "GDF8 [13]", "value": "3.45e-05", "unit": "s⁻¹"}
    ]},
    {"molecule": "B3", "values": [
      {"measurement": "serum half-life", "setting": "Serum half-life in rats", "value": "approximately 70 hours"}
    ]},
    {"molecule": "B4", "values": [
      {"measurement": "affinity for activin, in words", "setting": "activin [9]", "value": "relatively low affinity"},
      {"measurement": "affinity for GDF11, in words", "setting": "GDF11 [11]", "value": "relatively low affinity"}
    ]},
    {"molecule": "B5", "values": [
      {"measurement": "binding to activin relative to ActRIIB(20-134)-Fc", "setting": "activin [14]", "value": "reduced"},
      {"measurement": "binding to GDF11 relative to ActRIIB(20-134)-Fc", "setting": "GDF11 [15]", "value": "reduced"}
    ]}
  ]
}
